Patent US20050084844A1
“And” between values parts separate entries of the source, which are not always exact repeats. Equal values may be shown once.

What was measured:
[1] = biological target: active TGFβ generated by positive B9F clones (rat); assay: cell-based or functional assay
[2] = biological target: endogenous latent TGFβ secreted by B9F cells (latent TGFβ1, 2 and 3) (rat); assay: cell-based or functional assay

Substance	luciferase activity of TMLC co-culture with positive clones, with against without the TGFβ inhibitor (LAP) (fraction of the value without inhibitor) [1]	rightward shift in GFP fluorescence of B9F reporter cells (percent of cells in the bright gate) [2] [%]
Recombinant simian TGFβ1 LAP (from UniProt P09533 30-278)	0.33 and 0.5	
integrin ανβ6 on B9F reporter cells (retrovirally expressed β6-integrin subunit paired with the endogenously expressed αν-integrin subunit) (receptor)		48
integrin ανβ8 on B9F reporter cells (retrovirally expressed β8-integrin subunit paired with the endogenously expressed αν-integrin subunit) (receptor)		25
